Results published in patent US20230257470A1 (published 2023).
Blank lines part the entries; values can stand above or below the binder they belong to.

Legend:
[1] = target: T1, human FcγRIIIa(F) (human, UniProt P08637 17-208, limits assumed); assay: SPR (Biacore), antibody captured on chip, FcgR injected, HBS-EP+, 25 C; bound amount corrected by captured amount; reference itself
T1 construct: also called hFcgRIIIa(F); allotype F158

[2] = target: T2, human FcγRIIa(H) (human, UniProt P12318 36-217); assay: as above
T2 construct: also called hFcgRIIa(H); FcγRIIa type H
T2 sequence: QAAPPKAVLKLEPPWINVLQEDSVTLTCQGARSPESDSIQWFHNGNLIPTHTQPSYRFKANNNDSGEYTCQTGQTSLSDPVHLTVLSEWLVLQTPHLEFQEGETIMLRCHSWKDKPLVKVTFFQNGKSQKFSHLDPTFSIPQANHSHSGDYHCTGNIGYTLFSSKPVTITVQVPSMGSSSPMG

[3] = target: T3, human FcγRIa (human, UniProt P12314 16-292, limits assumed); assay: as above
T3 construct: also called hFcgRIa
T3 sequence (P12314 16-292 limits assumed): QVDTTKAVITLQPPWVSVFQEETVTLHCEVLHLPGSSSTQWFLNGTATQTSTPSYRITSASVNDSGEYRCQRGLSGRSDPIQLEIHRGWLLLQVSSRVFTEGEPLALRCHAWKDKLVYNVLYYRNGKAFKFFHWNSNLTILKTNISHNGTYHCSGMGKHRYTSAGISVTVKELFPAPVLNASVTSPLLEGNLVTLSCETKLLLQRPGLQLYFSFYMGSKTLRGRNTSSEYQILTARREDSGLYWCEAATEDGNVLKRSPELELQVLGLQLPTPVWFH

[4] = target: T4, human FcγRIIa(R) (human, UniProt P12318 36-217); assay: as above
T4 construct: also called hFcgRIIa(R); FcγRIIa type R
T4 chain: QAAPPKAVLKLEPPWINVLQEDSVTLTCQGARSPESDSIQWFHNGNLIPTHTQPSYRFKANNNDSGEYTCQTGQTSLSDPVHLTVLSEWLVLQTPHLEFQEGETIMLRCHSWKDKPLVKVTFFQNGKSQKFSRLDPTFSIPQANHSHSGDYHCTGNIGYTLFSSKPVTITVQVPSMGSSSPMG

[5] = target: T5, human FcγRIIb (human, UniProt P31994 43-217, limits assumed); assay: as above
T5 construct: also called hFcgRIIb
T5 sequence: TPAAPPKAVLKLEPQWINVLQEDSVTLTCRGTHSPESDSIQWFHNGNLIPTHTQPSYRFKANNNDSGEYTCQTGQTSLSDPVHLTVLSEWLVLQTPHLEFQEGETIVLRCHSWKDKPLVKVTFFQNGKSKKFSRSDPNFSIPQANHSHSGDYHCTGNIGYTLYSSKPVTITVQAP

[6] = target: T1, human FcγRIIIa(F); assay: SPR (Biacore), antibody captured on chip, FcgR injected, HBS-EP+, 25 C; bound amount corrected by captured amount; reference GpH7-G1d/GpL16-k0
Protocol: (§1) Interaction between each modified antibody and Fcγ receptor prepared in the manner described above was analyzed using the BIACORE™ T100 surface plasmon resonance system (GE Healthcare), BIACORE™ T200 surface plasmon resonance system (GE Healthcare), BIACORE™ A100 surface plasmon resonance system or BIACORE™ 4000 surface plasmon resonance system. HBS-EP+(GE Healthcare) was used for the running buffer, and measurements were carried out at 25° C. The chips used were chips in which antigen peptides, Protein A (Thermo Scientific), Protein A/G (Thermo Scientific) or Protein L (ACTIGEN® protein (Alltech or BioVision) were immobilized on the Series S Sensor Chip CM5 (GE Healthcare) or Series S Sensor Chip CM4 (GE Healthcare) by amine coupling, or chips in which preliminarily biotinylated antigen peptides were allowed to interact and then immobilized on the Series S Sensor Chip SA (certified) (GE Healthcare). The target antibodies were captured on these sensor chips, Fcγ receptor diluted with the running buffer was allowed to interact, followed by measurement of the amount of bound antibody. The amounts bound were compared between antibodies. However, since the amount of Fcγ receptor bound depends on the amount of captured antibody, the values used for comparison were first corrected by dividing the amount of Fcγ receptor bound by the captured amount of each antibody. Through reaction with 10 mM glycine-HCl at pH 1.5, the sensor chips were regenerated by washing off antibody captured on the sensor chips and used repeatedly.

[7] = target: T2, human FcγRIIa(H); assay: as above
Protocol: as §1

[8] = target: T3, human FcγRIa; assay: as above
Protocol: as §1

[9] = target: T4, human FcγRIIa(R); assay: as above
Protocol: as §1

[10] = target: T5, human FcγRIIb; assay: as above
Protocol: as §1

[11] = target: T6, human FcγRIIb (human, UniProt P31994 43-217, limits assumed); assay: SPR, captured antibody, FcγR analyte; bound amount per captured antibody
T6 construct: also called FcgRIIb; FcγIIB
T6 sequence: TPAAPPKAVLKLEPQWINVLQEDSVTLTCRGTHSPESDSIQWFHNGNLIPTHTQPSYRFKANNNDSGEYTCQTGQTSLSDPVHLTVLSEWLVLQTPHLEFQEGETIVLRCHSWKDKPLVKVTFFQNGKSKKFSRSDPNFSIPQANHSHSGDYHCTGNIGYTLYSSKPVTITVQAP
Protocol: as §1
Binding strength was evaluated according to the following method based on the results of analyzing the interaction with each FcγR. […] That value was then further multiplied by 100, and the resulting value was used as an indicator of relative binding activity to each FcγR.

[12] = target: T7, human FcγRIIb (human, UniProt P31994 43-217, limits assumed); assay: SPR (Biacore T100), antibody captured by Protein L, FcγR as analyte, pH 7.4, 25 C
T7 construct: Soluble analyte in SPR; also called hFcgRIIb; FcgRIIb
T7 sequence: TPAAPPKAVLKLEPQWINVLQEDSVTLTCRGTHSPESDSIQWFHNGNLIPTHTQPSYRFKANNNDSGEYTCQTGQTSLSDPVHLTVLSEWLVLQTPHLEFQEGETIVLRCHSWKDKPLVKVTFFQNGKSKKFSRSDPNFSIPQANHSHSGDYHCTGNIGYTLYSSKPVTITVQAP
Protocol: (§2) Interaction of these antibodies with FcγRIIa(R) and FcγRIIb was analyzed using the BIACORE™ T100 surface plasmon resonance system (GE Healthcare). Measurements were carried out at 25° C. using a buffer consisting of 20 mM N-(2-acetamido)-2-aminoethanesulfonic acid (ACES), 150 mM NaCl and 0.05% polysorbate 20 (Tween 20®) (pH 7.4) for the running buffer. The Series S Sensor Chip CM4 (GE Healthcare) was used after immobilizing Protein L by amine coupling. […] Antibody captured on the chip was washed by reacting with 10 mM glycine-HCl (pH 1.5) following measurement, and the chip regenerated in this manner was used repeatedly.
(§3) Measurement results were analyzed using the BIACORE™ Evaluation Software. Antibody was captured by Protein L, and the amount of change in a sensorgram before and after the antibody was captured was defined as X1. […]

[13] = target: T8, human FcγRIIa(R) (allotype R131) (human, UniProt P12318 36-217); assay: as above
T8 construct: Soluble analyte in SPR; also called hFcgRIIa(R); FcgRIIaR
T8 chain: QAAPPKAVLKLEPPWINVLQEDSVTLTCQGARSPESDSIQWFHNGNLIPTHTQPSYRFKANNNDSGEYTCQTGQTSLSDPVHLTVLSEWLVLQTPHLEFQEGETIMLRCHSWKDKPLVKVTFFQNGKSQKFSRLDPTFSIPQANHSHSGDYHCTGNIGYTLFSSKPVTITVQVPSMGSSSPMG
Protocol: as §2, §3

[14] = target: T1, human FcγRIIIa(F); assay: SPR (Biacore), antibody captured on Protein L, human FcgR injected, pH 7.4, 25 C; normalised to captured amount x 1500
Protocol: Binding activity between the antibodies and human FcγRIa, FcγRIIa(H), FcγRIIa(R), FcγRIIb and FcγRIIIa(F) (hereinafter referred to as human FcγRs) was evaluated using the BIACORE™ T100 or T200 surface plasmon resonance system (GE Healthcare). The antibodies being tested were captured by Protein L (ACTIGEN® protein (Alltech)) that was immobilized in suitable amounts on the CM4 Sensor Chip (GE Healthcare) by amine coupling. Next, the diluted human FcγRs and a running buffer used as a blank were injected to allow interaction with the antibodies captured on the sensor chip. A buffer consisting of 20 mmol/L N-(2-acetamido)-2-aminoethanesulfonic acid (ACES), 150 mmol/L NaCl and 0.05% (w/v) polysorbate 20 (Tween 20®) (pH 7.4) was used for the running buffer, and this buffer was also used to dilute the human FcγRs. 10 mmol/L glycine-HCl (pH 1.5) was used to regenerate the sensor chip. All measurements were carried out at 25° C.
Binding activity to human FcγRs can be represented by the relative binding activity to human FcγRs. Antibody was captured by Protein L, and the amount of change in a sensorgram before and after the antibody was captured was defined as X1. […]

[15] = target: T9, human FcγRIIb (human, UniProt P31994 43-217); assay: ratio of SPR KD values for FcγRIIb; reference: parent polypeptide IL6R-F11/IL6R-L
T9 construct: also called FcγRIIb extracellular region; FcγIIB
T9 sequence: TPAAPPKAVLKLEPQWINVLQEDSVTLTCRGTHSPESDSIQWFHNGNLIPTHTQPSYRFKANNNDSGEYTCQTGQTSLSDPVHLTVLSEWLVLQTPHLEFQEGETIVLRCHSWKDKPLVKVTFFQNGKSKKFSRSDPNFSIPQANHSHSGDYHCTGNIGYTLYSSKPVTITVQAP
Protocol: (§4) Next, interaction between these antibodies and FcγR was analyzed kinetically using the BIACORE™ T100 (GE Healthcare). The interaction was measured at a temperature of 25° C. using HBS-EP+ (GE Healthcare) for the running buffer. The Series S Sensor Chip CM5 (GE Healthcare) was used after immobilizing Protein A by amine coupling. […] Antibody captured on the chip was washed by allowing 10 mM glycine-HCl (pH 1.5) to react following measurement. The chip regenerated in this manner was used repeatedly. The dissociation constant KD (mol/L) was calculated from the association rate constant ka (L/mol/s) and dissociation rate constant kd (1/s) as calculated by global-fitting the measurement results with a 1:1 Langmuir binding model using the BIACORE™ Evaluation Software.
(§5) Furthermore, KD(IIaR)/KD(IIb) and KD(IIaH)/KD(IIb) in the table respectively show the value obtained by dividing the KD value of each variant for FcγRIIaR by the KD value of each variant for FcγRIIb, and the value obtained by dividing the KD value of each variant for FcγRIIaH by the KD value of each variant for FcγRIIb.

[16] = target: T9, human FcγRIIb; assay: ratio of SPR KD values of the same variant: KD for FcγRIIaR / KD for FcγRIIb
Protocol: as §4, §5

[17] = target: T9, human FcγRIIb; assay: ratio of SPR KD values of the same variant: KD for FcγRIIaH / KD for FcγRIIb
Protocol: as §4, §5

[18] = target: T10, human FcγRIIa type R (human, UniProt P12318 36-217); assay: SPR (Biacore), antibody captured, FcγR as analyte, method of Example 14
T10 construct: also called FcγRIIaR; FcγRIIa(R)
T10 chain: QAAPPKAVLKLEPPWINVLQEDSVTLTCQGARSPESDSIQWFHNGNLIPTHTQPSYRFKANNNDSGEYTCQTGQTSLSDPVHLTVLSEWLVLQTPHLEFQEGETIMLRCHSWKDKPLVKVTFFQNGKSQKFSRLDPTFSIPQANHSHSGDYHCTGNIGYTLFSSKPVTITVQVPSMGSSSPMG
Protocol: as §4, §5

[19] = target: T9, human FcγRIIb; assay: as above
Protocol: as §4, §5

[20] = target: T11, human FcγRIa (human, UniProt P12314 16-292, limits assumed); assay: as above
T11 construct: also called CD64
T11 sequence (P12314 16-292 limits assumed): as the sequence (P12314 16-292 limits assumed) above
Protocol: as §4, §5

[21] = target: T12, human FcγRIIa type R (human, UniProt P12318 36-217); assay: SPR (Biacore), amount of FcγR bound to captured antibody relative to IL6R-BF648/IL6R-L x100
T12 construct: also called FcgRIIaR; FcγRIIa(R)
T12 chain: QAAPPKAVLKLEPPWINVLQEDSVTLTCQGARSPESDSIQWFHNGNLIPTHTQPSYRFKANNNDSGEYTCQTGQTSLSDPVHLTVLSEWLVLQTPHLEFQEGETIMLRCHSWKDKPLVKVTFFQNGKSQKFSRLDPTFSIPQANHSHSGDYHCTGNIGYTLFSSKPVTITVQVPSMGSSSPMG
Protocol: According to the following method, relative binding activities were calculated for the results of analyzing interactions with the respective FcγRs.

T1 sequence (P08637 other isoform, or with tags, fused parts or gaps limits assumed): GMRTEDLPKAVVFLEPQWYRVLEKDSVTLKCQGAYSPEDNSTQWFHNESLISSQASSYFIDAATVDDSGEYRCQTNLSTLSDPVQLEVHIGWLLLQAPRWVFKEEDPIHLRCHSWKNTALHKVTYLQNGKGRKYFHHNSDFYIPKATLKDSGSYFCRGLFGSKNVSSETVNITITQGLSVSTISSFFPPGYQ

relative binding activity (amount bound / amount bound by GpH7-G1d/GpL16-k0 x 100) [1]: 100
relative binding activity (amount bound / amount bound by GpH7-G1d/GpL16-k0 x 100) [2]: 100
relative binding activity (amount bound / amount bound by GpH7-G1d/GpL16-k0 x 100) [3]: 100
relative binding activity (amount bound / amount bound by GpH7-G1d/GpL16-k0 x 100) [4]: 100
relative binding activity (amount bound / amount bound by GpH7-G1d/GpL16-k0 x 100) [5]: 100
B1: GpH7-G1d/GpL16-k0 (antibody)
chain 1: not shown
chain 2: DIVMTQSPLSLPVTPGEPASISCQASESLVHSNRNTYLHWYLQKPGQSPQLLIYKVSNRFSGVPDRFSGSGSGTDFTLKISRVEAEDVGVYYCSQNTHVPPTFGQGTKVEIERTVAAPSVFIFPPSDEQLKSGTASVVCLLNNFYPREAKVQWKVDNALQSGNSQESVTEQDSKDSTYSLSSTLTLSKADYEKHKVYACEVTHQGLSSPVTKSFNRGEC

relative binding activity (amount bound / amount bound by GpH7-G1d/GpL16-k0 x 100) [6]: 88
relative binding activity (amount bound / amount bound by GpH7-G1d/GpL16-k0 x 100) [7]: 92
relative binding activity (amount bound / amount bound by GpH7-G1d/GpL16-k0 x 100) [8]: 109
relative binding activity (amount bound / amount bound by GpH7-G1d/GpL16-k0 x 100) [9]: 94
relative binding activity (amount bound / amount bound by GpH7-G1d/GpL16-k0 x 100) [10]: 88
B2: GpH7-B3/GpL16-k0 (antibody, human IgG1)
heavy: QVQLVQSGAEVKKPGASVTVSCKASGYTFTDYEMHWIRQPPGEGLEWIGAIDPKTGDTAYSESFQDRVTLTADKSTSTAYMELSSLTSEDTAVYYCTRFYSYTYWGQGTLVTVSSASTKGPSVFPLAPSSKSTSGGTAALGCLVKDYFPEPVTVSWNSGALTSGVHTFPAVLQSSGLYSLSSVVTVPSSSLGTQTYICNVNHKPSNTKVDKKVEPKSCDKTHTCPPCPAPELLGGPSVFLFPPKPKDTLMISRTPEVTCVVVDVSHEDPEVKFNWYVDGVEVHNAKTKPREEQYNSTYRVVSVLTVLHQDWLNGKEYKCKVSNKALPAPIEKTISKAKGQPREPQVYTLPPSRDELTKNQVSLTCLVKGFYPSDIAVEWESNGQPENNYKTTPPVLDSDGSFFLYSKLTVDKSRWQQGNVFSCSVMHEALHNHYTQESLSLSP
light: DIVMTQSPLSLPVTPGEPASISCQASESLVHSNRNTYLHWYLQKPGQSPQLLIYKVSNRFSGVPDRFSGSGSGTDFTLKISRVEAEDVGVYYCSQNTHVPPTFGQGTKVEIE
notes: also called anti-glypican-3 antibody with B3 constant region (G1d with K439E)

relative binding activity [11]: 2 % of GpH7-B3/GpL16-k0
B3: GpH7-B3 L235R/GpL16-k0 (antibody, human IgG1)
heavy: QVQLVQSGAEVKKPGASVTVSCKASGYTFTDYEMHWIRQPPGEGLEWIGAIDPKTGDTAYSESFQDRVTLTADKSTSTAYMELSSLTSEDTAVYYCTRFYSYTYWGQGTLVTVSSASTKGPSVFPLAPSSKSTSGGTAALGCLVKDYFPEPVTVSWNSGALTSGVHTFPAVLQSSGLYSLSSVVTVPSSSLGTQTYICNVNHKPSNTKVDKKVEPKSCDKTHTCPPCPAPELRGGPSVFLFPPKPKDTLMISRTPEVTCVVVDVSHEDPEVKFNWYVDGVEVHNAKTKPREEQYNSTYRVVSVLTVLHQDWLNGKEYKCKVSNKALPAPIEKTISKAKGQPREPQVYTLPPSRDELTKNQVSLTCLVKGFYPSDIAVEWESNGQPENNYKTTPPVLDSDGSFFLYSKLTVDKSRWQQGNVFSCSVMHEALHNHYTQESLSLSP
light: DIVMTQSPLSLPVTPGEPASISCQASESLVHSNRNTYLHWYLQKPGQSPQLLIYKVSNRFSGVPDRFSGSGSGTDFTLKISRVEAEDVGVYYCSQNTHVPPTFGQGTKVEIE
notes: anti-glypican-3 IgG1; B3 constant region (G1d with K439E); also called B3 variant; copies: 2 + 2

BINDING AMOUNT (RU) [12]: 64 RU
BINDING AMOUNT (RU) [13]: 9.1 RU
B4: antibody containing VH3-IgG1-F652 for the heavy chain and L(WT)-CK for the light chain (antibody)
heavy: QVQLQESGPGLVKPSETLSLTCAVSGHSISHDHAWSWVRQPPGEGLEWIGFISYSGITNYNPSLQGRVTISRDNSKNTLYLQMNSLRAEDTAVYYCARSLARTTAMDYWGEGTLVTVSSASTKGPSVFPLAPSSKSTSGGTAALGCLVKDYFPEPVTVSWNSGALTSGVHTFPAVLQSSGLYSLSSVVTVPSSSLGTQTYICNVNHKPSNTKVDKKVEPKSCDKTHTCPPCPAPELLGGDSVFLFPPKPKDTLYISRTPEVTCVVVDVSHEDPEVKFNWYVDGVEVHNAKTKPREEQYNSTYRVVSVLTVLHQDWLNGKEYKCKVSNKALPAPIEKTISKAKGQPREPQVYTLPPSRDELTKNQVSLTCLVKGFYPSDIAVEWESNGQPENNYKTTPPVLDSDGSFFLYSKLTVDKSRWQQGNVFSCSVMHEALHYHYTQKSLSLSP
light: not shown
notes: VH3-IgG1-F11 with P238D (EU numbering)

BINDING AMOUNT (RU) [14]: 4.09 RU
B5: antibody containing VH3-IgG1-F1356 for the heavy chain and L(WT)-CK for the light chain (antibody)
heavy: QVQLQESGPGLVKPSETLSLTCAVSGHSISHDHAWSWVRQPPGEGLEWIGFISYSGITNYNPSLQGRVTISRDNSKNTLYLQMNSLRAEDTAVYYCARSLARTTAMDYWGEGTLVTVSSASTKGPSVFPLAPSSKSTSGGTAALGCLVKDYFPEPVTVSWNSGALTSGVHTFPAVLQSSGLYSLSSVVTVPSSSLGTQTYICNVNHKPSNTKVDKKVEPKSCDKTHTCPPCPAPELLRGPSVFLFPPKPKDTLYISRTPEVTCVVVDVSHEDPEVKFNWYVDGVEVHNAKTKPREEQYNSTYRVVSVLTVLHQDWLNGKEYKCKVSNKARPAPIEKTISKAKGQPREPQVYTLPPSRDELTKNQVSLTCLVKGFYPSDIAVEWESNGQPENNYKTTPPVLDSDGSFFLYSKLTVDKSRWQQGNVFSCSVMHEALHYHVTQKSLSLSP
light: not shown

KD(IIb) of parent polypeptide/KD(IIb) of altered polypeptide [15]: 3.5
KD(IIaR)/KD(IIb) [16]: 10.7
KD(IIaH)/KD(IIb) [17]: 12.8
Kd [18]: 21000 nM
Kd [19]: 2000 nM
Kd [20]: 140 nM
B6: IL6R-PD080/IL6R-L (antibody)
heavy: QVQLQESGPGLVKPSETLSLTCAVSGHSISHDHAWSWVRQPPGEGLEWIGFISYSGITNYNPSLQGRVTISRDNSKNTLYLQMNSLRAEDTAVYYCARSLARTTAMDYWGEGTLVTVSSASTKGPSVFPLAPSSKSTSGGTAALGCLVKDYFPEPVTVSWNSGALTSGVHTFPAVLQSSGLYSLSSVVTVPSSSLGTQTYICNVNHKPSNTKVDKKVEPKSCDKTHTCPPCPAPELLGDDSVFLFPPKPKDTLYISRTPEVTCVVVDVSHEDPEVKFNWYVDGVEVHNAKTKPREEQYNSTYRVVSVLTVLHQDWLNGKEYKCKVSNKALPAPIEKTISKAKGQPREPQVYTLPPSRDELTKNQVSLTCLVKGFYPSDIAVEWESNGQPENNYKTTPPVLDSDGSFFLYSKLTVDKSRWQQGNVFSCSVMHEALHYHYTQKSLSLSP
light: DIQMTQSPSSLSASVGDRVTITCRASQDISSYLNWYQQKPGKAPKLLIYYTSRLHSGVPSRFSGSGSGTDFTFTISSLQPEDIATYYCQQGNTLPYTFGQGTKVEIK
notes: Alteration is counted against IL6R-F11; also called G237D/P238D; P238D/G237D

relative binding activity [21]: 661 % of IL6R-BF648/IL6R-L
B7: IL6R-BP195/IL6R-L (antibody, human IgG1, name in EU numbering)
heavy: QVQLQESGPGLVKPSETLSLTCAVSGHSISHDHAWSWVRQPPGEGLEWIGFISYSGITNYNPSLQGRVTISRDNSKNTLYLQMNSLRAEDTAVYYCARSLARTTAMDYWGEGTLVTVSSASTKGPSVFPLAPSSKSTSGGTAALGCLVKDYFPEPVTVSWNSGALTSGVHTFPAVLQSSGLYSLSSVVTVPSSSLGTQTYICNVNHKPSNTKVDKKVEPKSCDKTHTCPPCPAPDYLGDDSVFLFPPKPKDTLMISRTPEVTCVVVDVSDEDGEVKFNWYVDGVEVHNAKTKPREEQDNSTYRVVSVLTVLHQDWLNGKEYKCKVSNAALPKPIEKTISKAKGQPREPQVYTLPPSRDELTKNQVSLTCLVKGFYPSDIAVEWESNGQPENNYKTTPPVLDSDGSFFLYSKLTVDKSRWQQGNVFSCSVMHEALHNHYTQESLSLSP
light: DIQMTQSPSSLSASVGDRVTITCRASQDISSYLNWYQQKPGKAPKLLIYYTSRLHSGVPSRFSGSGSGTDFTFTISSLQPEDIATYYCQQGNTLPYTFGQGTKVEIK
notes: Anti-human IL-6 receptor IgG1 Fc variant; also called E233D/L234Y/G237D/P238D/H268D/P271G/Y296D/K326A/A330K; copies: 2 + 2
